The target in the assay is SARS-CoV-2 spike (reference strain) expressed on CHO-K1 cells (SARS-CoV-2 reference strain (Wuhan-Hu-1), UniProt P0DTC2). The assay is described as follows: flow cytometry on cells. As to conditions: one partner purified. On the technique in general: In flow cytometry, cells or beads pass a laser one at a time.

B1: BA7208 (antibody, V domains shown)
VH: EVQLVQSGAEVKKPGESLKISCKGSGYSFTSYYWIGWVRQMPGKGLEWMGIVYPDDSDTRYSPSFQGQVTISADKSISTAYLQWSSLKASDTAMYYCVRHPGGGDWYFDLWGRGTLVTVSS
VL: DIQMTQSPSTLSASVGDRVTITCRASQSISSWLAWYQQKPGKAPKLLIYKASSLESGVPSRFSGSGSGTEFTLTITSLQPDDFATYYCQQYDSFSWTFGQGTKLEIK
Regarding B1, the binding result is reported as “binds”.

These data come from publication PMC10825162 (Nature Communications, 2024).
